Data taken from patent publication US20200339690A1 (JOUNCE THERAPEUTICS, published 2020).

Legend:
[1] = target: T1, human LILRB2 expressed on cells (human, UniProt Q8N423 22-597); assay: flow cytometry, human whole blood, monocytes
T1 construct: CHO-s cells over-expressing full-length human LILRB2, or primary human macrophages and dendritic cells; also called hLILRB2-CHO-s; hLILRB2+ CHO-s

[2] = target: T2, Cyno Monocytes / Cyno Neutrophils (Macaca fascicularis); assay: flow cytometry, cyno whole blood, monocytes
T2 construct: cell surface, primary blood cells; also called LILRB2+ populations in cyno whole blood

[3] = target: T1, human LILRB2 expressed on cells; assay: flow cytometry, LILRB2 CHOs
[4] = target: T2, Cyno Monocytes / Cyno Neutrophils; assay: flow cytometry, cyno whole blood, neutrophils
[5] = target: human LILRB2-His (human, UniProt Q8N423 22-460); assay: SPR, Sierra Sensors MASS-2; antibody captured on anti-human Fc, LILRB2-His 65 to 0.27 nM, 1:1 Langmuir fit
Method: Using a Mass-2 (Sierra Sensors) high capacity amine chip preimmobilized with AffiniPure Goat Anti-Human IgG, Fcγ Fragment Specific antibody, humanized antibodies were captured on the anti-human surface and then binding to human LILRB2-His was measured by flowing six different concentrations from 65 to 0.27 nM of the analyte over the antibody surface. The anti-LILRB2 surface was removed (10 mM Glycine, pH 2.0) and recaptured between all concentrations or buffer only cycles. The data was analyzed using the Sierra Analyzer software (version 3.1.14). All curves were double subtracted and fit to a 1:1 Langmuir Fit.

[6] = target: T3, human LILRA4 (human, UniProt P59901 24-499); assay: flow cytometry, LILRA4 CHOs
T3 construct: Over-expressed on CHO-s cells; also called hLILRA4

[7] = target: T4, Rhesus Monocytes / Rhesus Neutrophils (Macaca mulatta); assay: flow cytometry, rhesus whole blood, neutrophils
T4 construct: cell surface, primary blood cells; also called LILRB2+ populations in rhesus whole blood

[8] = target: T5, human LILRB3 (human, UniProt O75022 24-631); assay: flow cytometry, LILRB3 CHOs
T5 construct: Over-expressed on CHO-s cells; also called hLILRB3

[9] = target: T1, human LILRB2 expressed on cells; assay: cell-based or functional assay
[10] = target: T1, human LILRB2 expressed on cells; assay: blocking of HLA-A2 tetramer on LILRB2 CHOs, flow cytometry, mAb 10 ug/mL
Method: (§1) In the secondary screen, 1×10⁵ CHO-s cells over-expressing human LILRB2 were plated in 96-well round-bottom tissue culture-treated plate and washed twice with 1×DPBS (Gibco) and incubated with 10 μg/mL primary antibody (anti-LILRB2 mAbs or control) prepared in 50 μL FACS buffer (1×DPBS containing 2% HI-FBS (Sigma)+0.05% Sodium Azide). After incubation with mAbs for 30 minutes at 4° C., cells were washed twice in FACS buffer and then resuspended in 50 μL of FACS buffer containing 5 μg/mL APC-conjugated HLA-A2 or HLA-G tetramer (Fred Hutch). Cells were incubated protected from light for 30-60 minutes at 4° C. After incubation with tetramer, cells were washed in FACS buffer and re-suspended in fix buffer (1.5% paraformaldehyde diluted in 1×DPBS). Samples were analyzed using the Celesta flow cytometer analyzer (BD Biosciences). Data represent percent tetramer blocked by mAbs relative to tetramer alone, calculated according to the following equation: […]

[11] = target: T6, human LILRB5 (human, UniProt O75023 24-590); assay: flow cytometry, LILRB5 CHOs
T6 construct: Over-expressed on CHO-s cells; also called hLILRB5

[12] = target: T1, human LILRB2 expressed on cells; assay: flow cytometry, human whole blood, neutrophils
[13] = target: T4, Rhesus Monocytes / Rhesus Neutrophils; assay: flow cytometry, rhesus whole blood, monocytes
[14] = target: T7, human LILRB1 (human, UniProt Q8NHL6 24-650); assay: flow cytometry, LILRB1 CHOs
T7 construct: Over-expressed on CHO-s cells; also called hLILRB1

[15] = target: T8, human LILRB4 (human, UniProt Q8NHJ6 22-448); assay: flow cytometry, LILRB4 CHOs
T8 construct: Over-expressed on CHO-s cells; also called hLILRB4

[16] = target: T9, human LILRA3 (human, UniProt Q8N6C8 24-439); assay: flow cytometry, LILRA3 CHOs
T9 construct: Over-expressed on CHO-s cells; also called hLILRA3

[17] = target: T10, human LILRA6 (human, UniProt Q6PI73 24-481); assay: flow cytometry, LILRA6 CHOs
T10 construct: Over-expressed on CHO-s cells; also called hLILRA6

[18] = target: T11, human LILRA5 (human, UniProt A6NI73 42-299); assay: flow cytometry, LILRA5 CHOs
T11 construct: Over-expressed on CHO-s cells; also called hLILRA5

[19] = target: T12, human LILRA2 (human, UniProt Q8N149 24-483); assay: flow cytometry, LILRA2 CHOs
T12 construct: Over-expressed on CHO-s cells; also called hLILRA2

[20] = target: T1, human LILRB2 expressed on cells; assay: blocking of HLA-G tetramer on LILRB2 CHOs, flow cytometry, mAb 10 ug/mL
Method: as §1

[21] = target: T13, human LILRA1 (human, UniProt O75019 17-489); assay: flow cytometry, LILRA1 CHOs
T13 construct: Over-expressed on CHO-s cells; also called hLILRA1
T13 sequence (O75019 17-489 limits assumed): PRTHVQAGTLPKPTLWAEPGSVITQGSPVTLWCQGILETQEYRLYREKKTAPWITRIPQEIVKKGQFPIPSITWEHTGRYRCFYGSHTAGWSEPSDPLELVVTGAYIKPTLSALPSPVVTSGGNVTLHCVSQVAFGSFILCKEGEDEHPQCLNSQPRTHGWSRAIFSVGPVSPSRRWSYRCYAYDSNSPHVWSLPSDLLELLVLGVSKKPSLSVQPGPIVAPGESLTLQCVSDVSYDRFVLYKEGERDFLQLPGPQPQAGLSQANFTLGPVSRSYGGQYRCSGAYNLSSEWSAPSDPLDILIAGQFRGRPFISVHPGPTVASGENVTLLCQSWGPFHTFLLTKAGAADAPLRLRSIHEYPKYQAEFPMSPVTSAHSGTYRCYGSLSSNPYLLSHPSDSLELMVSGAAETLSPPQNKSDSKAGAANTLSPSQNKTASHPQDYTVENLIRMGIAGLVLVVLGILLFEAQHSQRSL

T7 sequence (Q8NHL6 24-650 limits assumed): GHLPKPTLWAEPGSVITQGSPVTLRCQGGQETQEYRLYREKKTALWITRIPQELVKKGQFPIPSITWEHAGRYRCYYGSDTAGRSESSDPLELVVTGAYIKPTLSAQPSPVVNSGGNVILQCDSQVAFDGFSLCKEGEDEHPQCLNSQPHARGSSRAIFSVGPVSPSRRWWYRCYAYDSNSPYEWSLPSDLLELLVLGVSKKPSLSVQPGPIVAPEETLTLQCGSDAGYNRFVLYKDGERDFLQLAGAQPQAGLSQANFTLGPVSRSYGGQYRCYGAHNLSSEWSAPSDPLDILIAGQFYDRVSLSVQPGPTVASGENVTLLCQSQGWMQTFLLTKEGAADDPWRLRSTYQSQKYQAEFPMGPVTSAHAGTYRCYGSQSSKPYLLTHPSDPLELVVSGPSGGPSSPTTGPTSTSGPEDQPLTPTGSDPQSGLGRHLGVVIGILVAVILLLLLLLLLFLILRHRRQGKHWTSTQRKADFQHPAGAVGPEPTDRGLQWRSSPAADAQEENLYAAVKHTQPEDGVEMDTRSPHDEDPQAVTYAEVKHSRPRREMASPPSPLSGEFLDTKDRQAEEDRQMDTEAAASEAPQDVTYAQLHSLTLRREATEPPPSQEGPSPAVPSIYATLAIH
T11 sequence (A6NI73 42-299 limits assumed): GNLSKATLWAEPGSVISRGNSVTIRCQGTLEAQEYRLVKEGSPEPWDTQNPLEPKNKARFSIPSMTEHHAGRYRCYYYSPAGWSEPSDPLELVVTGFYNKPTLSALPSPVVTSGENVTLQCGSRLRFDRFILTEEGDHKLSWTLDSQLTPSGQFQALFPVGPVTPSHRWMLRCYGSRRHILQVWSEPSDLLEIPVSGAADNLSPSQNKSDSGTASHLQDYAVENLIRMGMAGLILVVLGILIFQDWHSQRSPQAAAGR
Chain of human LILRB2-His (Q8N423 other isoform, or with tags, fused parts or gaps): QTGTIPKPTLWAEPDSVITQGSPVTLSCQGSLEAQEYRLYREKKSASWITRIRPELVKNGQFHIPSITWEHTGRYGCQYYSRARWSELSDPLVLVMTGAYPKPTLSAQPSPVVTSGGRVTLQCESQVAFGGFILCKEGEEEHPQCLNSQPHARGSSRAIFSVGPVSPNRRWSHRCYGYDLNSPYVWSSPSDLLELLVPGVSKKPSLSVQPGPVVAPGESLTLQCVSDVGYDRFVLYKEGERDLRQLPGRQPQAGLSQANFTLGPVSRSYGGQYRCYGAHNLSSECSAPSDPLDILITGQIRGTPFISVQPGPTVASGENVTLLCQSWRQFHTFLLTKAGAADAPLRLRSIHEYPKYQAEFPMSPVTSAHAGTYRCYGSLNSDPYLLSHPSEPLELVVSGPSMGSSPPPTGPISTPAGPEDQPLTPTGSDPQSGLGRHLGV
T10 sequence (Q6PI73 24-481 limits assumed): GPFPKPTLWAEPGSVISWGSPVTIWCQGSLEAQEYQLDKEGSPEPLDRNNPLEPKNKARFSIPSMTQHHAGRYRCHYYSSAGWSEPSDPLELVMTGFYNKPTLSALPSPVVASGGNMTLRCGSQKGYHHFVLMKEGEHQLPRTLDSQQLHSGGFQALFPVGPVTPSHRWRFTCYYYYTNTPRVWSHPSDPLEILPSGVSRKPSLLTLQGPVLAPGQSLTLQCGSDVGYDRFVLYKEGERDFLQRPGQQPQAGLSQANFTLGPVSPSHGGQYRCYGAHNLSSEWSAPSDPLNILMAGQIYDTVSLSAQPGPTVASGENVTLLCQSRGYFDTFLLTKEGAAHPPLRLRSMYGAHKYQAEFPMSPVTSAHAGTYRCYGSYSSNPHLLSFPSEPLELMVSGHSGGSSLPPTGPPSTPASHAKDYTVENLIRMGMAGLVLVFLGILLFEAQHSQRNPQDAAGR
T3 sequence (P59901 other isoform, or with tags, fused parts or gaps limits assumed): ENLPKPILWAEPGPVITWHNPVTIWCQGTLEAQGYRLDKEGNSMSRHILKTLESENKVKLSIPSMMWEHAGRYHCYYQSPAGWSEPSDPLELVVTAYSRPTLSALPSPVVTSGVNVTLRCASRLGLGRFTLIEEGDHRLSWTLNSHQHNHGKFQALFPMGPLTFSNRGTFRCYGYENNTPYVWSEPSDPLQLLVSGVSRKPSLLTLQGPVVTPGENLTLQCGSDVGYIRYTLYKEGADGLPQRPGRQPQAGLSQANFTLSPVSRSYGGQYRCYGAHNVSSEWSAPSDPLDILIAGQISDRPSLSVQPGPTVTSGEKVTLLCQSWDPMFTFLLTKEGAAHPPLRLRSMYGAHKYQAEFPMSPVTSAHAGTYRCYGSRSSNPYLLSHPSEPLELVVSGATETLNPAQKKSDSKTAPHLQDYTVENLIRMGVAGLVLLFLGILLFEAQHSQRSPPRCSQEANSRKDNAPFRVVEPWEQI
T12 sequence (Q8N149 24-483 S135L limits assumed): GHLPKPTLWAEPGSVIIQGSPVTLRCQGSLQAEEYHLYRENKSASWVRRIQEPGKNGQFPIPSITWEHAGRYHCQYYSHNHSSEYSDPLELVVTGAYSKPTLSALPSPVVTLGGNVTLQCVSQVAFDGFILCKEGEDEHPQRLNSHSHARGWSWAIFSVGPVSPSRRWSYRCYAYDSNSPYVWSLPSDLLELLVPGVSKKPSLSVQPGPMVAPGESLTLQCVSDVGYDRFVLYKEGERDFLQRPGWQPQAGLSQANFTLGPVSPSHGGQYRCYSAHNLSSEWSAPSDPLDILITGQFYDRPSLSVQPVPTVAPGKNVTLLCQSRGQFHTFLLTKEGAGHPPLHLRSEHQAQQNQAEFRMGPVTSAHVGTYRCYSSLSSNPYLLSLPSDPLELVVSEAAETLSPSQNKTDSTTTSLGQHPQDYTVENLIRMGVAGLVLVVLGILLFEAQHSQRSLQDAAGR
T1 sequence (Q8N423 other isoform, or with tags, fused parts or gaps limits assumed): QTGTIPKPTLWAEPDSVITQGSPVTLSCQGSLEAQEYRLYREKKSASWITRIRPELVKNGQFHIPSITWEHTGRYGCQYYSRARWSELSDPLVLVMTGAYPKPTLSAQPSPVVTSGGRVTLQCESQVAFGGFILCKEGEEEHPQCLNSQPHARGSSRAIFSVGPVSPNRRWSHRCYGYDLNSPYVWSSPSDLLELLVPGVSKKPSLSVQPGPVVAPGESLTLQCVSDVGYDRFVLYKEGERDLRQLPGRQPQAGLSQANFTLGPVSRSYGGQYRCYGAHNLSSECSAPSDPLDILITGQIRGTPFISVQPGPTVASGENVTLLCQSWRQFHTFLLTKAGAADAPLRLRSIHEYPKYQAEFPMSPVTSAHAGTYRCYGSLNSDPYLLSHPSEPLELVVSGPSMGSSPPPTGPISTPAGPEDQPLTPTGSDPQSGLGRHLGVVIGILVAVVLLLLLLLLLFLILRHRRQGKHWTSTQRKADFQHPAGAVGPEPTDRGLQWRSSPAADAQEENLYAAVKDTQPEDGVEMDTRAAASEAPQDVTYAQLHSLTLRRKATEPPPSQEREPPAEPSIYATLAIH
T9 sequence (Q8N6C8 24-439 limits assumed): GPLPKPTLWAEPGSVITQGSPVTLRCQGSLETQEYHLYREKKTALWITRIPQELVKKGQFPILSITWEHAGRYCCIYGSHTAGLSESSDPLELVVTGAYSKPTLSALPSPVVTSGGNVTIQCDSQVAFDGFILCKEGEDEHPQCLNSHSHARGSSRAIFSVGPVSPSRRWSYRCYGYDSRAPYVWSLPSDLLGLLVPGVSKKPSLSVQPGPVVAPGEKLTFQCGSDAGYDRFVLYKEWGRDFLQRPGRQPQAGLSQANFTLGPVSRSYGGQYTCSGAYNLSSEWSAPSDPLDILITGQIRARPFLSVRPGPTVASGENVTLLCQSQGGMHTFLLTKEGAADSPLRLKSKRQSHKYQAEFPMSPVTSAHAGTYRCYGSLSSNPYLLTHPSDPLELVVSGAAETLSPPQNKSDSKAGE
T6 sequence (O75023 24-590 P542R limits assumed): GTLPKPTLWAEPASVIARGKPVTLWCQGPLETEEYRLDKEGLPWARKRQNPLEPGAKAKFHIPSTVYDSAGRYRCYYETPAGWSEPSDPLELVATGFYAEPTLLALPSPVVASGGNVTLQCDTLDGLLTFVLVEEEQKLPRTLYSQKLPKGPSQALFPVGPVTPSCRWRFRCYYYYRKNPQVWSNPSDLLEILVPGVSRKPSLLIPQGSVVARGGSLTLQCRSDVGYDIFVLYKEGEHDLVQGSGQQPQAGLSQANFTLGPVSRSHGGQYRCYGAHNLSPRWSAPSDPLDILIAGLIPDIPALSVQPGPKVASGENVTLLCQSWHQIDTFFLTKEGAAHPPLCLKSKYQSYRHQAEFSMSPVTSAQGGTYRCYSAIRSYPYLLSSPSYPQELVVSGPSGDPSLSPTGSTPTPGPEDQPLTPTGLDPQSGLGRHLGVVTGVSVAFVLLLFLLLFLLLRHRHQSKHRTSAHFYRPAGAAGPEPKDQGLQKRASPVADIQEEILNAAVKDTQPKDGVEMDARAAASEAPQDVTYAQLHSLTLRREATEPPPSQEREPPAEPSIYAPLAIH

| Human Monocytes binding (fold over iso) [1] | Cyno Monocytes binding (fold over iso) [2] | binding (fold over iso) [3] | Cyno Neutrophils binding (fold over iso) [4] | Kd [5] | kon [5] | binding (fold over iso) [6] | binding result [6] | Rhesus Neutrophils binding (fold over iso) [7] | binding (fold over iso) [8] | binding result [8] | CCL2 production (fold over LPS alone) [9] | IL-6 production (fold over LPS alone) [9] | IL-10 production (fold over LPS alone) [9] | TNFa production (fold over LPS alone) [9] | HLA-A2:LILRB2 CHOs blocking (% blocked) [10] | binding (fold over iso) [11] | binding result [11] | Human Neutrophils binding (fold over iso) [12] | Rhesus Monocytes binding (fold over iso) [13] | Binder | further results |
| --- | --- | --- | --- | --- | --- | --- | --- | --- | --- | --- | --- | --- | --- | --- | --- | --- | --- | --- | --- | --- | --- |
| 11.3 fold over iso | 0.92 fold over iso | 3.68 fold over iso | 0.87 fold over iso | 2.85 nM | 1.56e+06 M⁻¹ s⁻¹ | -36.5 fold over iso | no binding | 1.44 fold over iso | 0.99 fold over iso | no binding | 1.85 fold over LPS alone | 2.57 fold over LPS alone | 0.89 fold over LPS alone | 8.12 fold over LPS alone | 93.4 % blocked | 1.03 fold over iso | no binding | 4.55 fold over iso | 1.41 fold over iso | J-17 (antibody, human IgG4 S228P, kappa, V domains shown, Human IgG4 chimera of murine origin; also called J-17.h) VH: QIQLVQSGPELKKPGETVKISCKASGYTFTTYGLSWVKQTPGKGLKWMGWINTYSGVPTYTDDFKGRFAFSLETSASTAYLQINNLKNEDTATYFCARPYDFDQVGFAYWGQGTLVTVSA VL: SIVMTQTPKFLLVSAGDRVSITCKASQTVSSDVAWYQQKAGQSPKLLIYYASNRYTGVPDRFTGSGYGTDFTFTISTVQAEDLAVYFCQQDYSSPFTFGGGSKLEIKR | binding (fold over iso) [14]: 1.05 fold over iso; binding result [14]: no binding; binding (fold over iso) [15]: 1 fold over iso; binding result [15]: no binding; binding (fold over iso) [16]: 1.35 fold over iso; binding result [16]: no binding; binding (fold over iso) [17]: 0.94 fold over iso; binding result [17]: no binding; binding (fold over iso) [18]: 0.82 fold over iso; binding result [18]: no binding; binding (fold over iso) [19]: -1.05 fold over iso; binding result [19]: no binding; HLA-G:LILRB2 CHOs blocking (% blocked) [20]: 96.6 % blocked |
| 12.3 fold over iso | 17.9 fold over iso | 3.78 fold over iso | 2.35 fold over iso | 2.62 nM | 515000 M⁻¹ s⁻¹ | -26.8 fold over iso | no binding | 21.9 fold over iso | 1.09 fold over iso | no binding | 1.69 fold over LPS alone | 2.72 fold over LPS alone | 0.8 fold over LPS alone | 8.9 fold over LPS alone | 95.3 % blocked | 1.19 fold over iso | no binding | 4.5 fold over iso | 6.79 fold over iso | J-19 (antibody, human IgG4 S228P, kappa, V domains shown, Human IgG4 chimera from a rat immunization; also called J-19.h) VH: QVTLKESGPGILQPSHTLSLTCSFSGFSLNTYAMGVSWIRQPSGKGLEWLASIWWNGNKYNNPSLKSRLTVSKDTSNNQAFLKVTSVDTADTATYYCAHSRIIRFTDYVMDAWGQGASVTVSS VL: DIQMTQSPASLSTFLGEPVTIECRASEDIYNDLAWYQQKPGKSPQLLIYNANSLHTGVPSRFSGSGSGTQYSLKINSLQSEDVASYFCQQYYDYPLTFGSGTKLEIKR | koff [5]: 0.00135 s⁻¹; binding (fold over iso) [21]: -3.31 fold over iso; binding result [21]: no binding; binding (fold over iso) [14]: 1.05 fold over iso; binding result [14]: no binding; binding (fold over iso) [15]: 1.03 fold over iso; binding result [15]: no binding; binding (fold over iso) [16]: 0.97 fold over iso; binding result [16]: no binding; binding (fold over iso) [17]: 1.07 fold over iso; binding result [17]: no binding; binding (fold over iso) [18]: -0.62 fold over iso; binding result [18]: no binding; binding (fold over iso) [19]: -0.51 fold over iso; binding result [19]: no binding; HLA-G:LILRB2 CHOs blocking (% blocked) [20]: 97 % blocked |
| 8.54 fold over iso | 0.71 fold over iso | 3.49 fold over iso | 0.94 fold over iso | 2.47 nM | 370000 M⁻¹ s⁻¹ | -1.27 fold over iso | no binding | 0.64 fold over iso | 1.09 fold over iso | no binding | 0.96 fold over LPS alone | 3.06 fold over LPS alone | 0.81 fold over LPS alone | 7.61 fold over LPS alone | 94.4 % blocked | 1.22 fold over iso | no binding | 2.89 fold over iso | 0.88 fold over iso | J-11 (antibody, human IgG4 S228P, kappa, V domains shown, Human IgG4 chimera of murine origin; also called J-11.h) VH: QVQLQQSGAELMKPGASVKLSCKATGYILTGYWIEWVKQRPGHGLEWIGEILPGSGSTNYNENFKGKATFTADTSSNTAYMQLSSLTTEDSAIYYCARAVLGYFDYWGQGTTLTVSS VL: DIVMTQSHKFMSTSVGDRVSITCKASQDVSTAVAWYQQKPGQSPKLLIYWASTRHTGVPDRFTGSGSGTDYTLTISSVQAEDLALYYCHQHYSTYTFGGGTKLEIKR | koff [5]: 0.000913 s⁻¹; binding (fold over iso) [21]: -1.63 fold over iso; binding result [21]: no binding; binding (fold over iso) [14]: 1.07 fold over iso; binding result [14]: no binding; binding (fold over iso) [15]: 1.03 fold over iso; binding result [15]: no binding; binding (fold over iso) [16]: 1.02 fold over iso; binding result [16]: no binding; binding (fold over iso) [17]: 1 fold over iso; binding result [17]: no binding; binding (fold over iso) [18]: 1.34 fold over iso; binding result [18]: no binding; binding (fold over iso) [19]: -2.52 fold over iso; binding result [19]: no binding; HLA-G:LILRB2 CHOs blocking (% blocked) [20]: 99.9 % blocked |
